This is an account of results in patent publication US20200325187A1 (Genentech, published 2020).

T1: hVEGF-A (8-109) (human, UniProt P15692 214-315)
T1 sequence (looked up): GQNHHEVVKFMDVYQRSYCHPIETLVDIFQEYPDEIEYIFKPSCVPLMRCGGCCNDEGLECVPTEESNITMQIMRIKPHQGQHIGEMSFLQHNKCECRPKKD

The first test concerns the target T1, hVEGF-A (8-109). The experiment in a line: spot phage ELISA. On the procedure:
(§1) After four rounds of binding selection, individual phage clones were picked and inoculated into 450 μl 2YT media containing 50 µg/ml Carbenecillin and M13-KO7 helper phage in 96-well blocks, which were grown at 37° C. overnight. […] The plates were washed and bound phage was detected with anti-M13-HRP followed by TMB substrate. In these assays, phage binding to BSA alone was tested in parallel to assess background binding. […] Positive clones were subjected to DNA sequence analysis.
For orientation: An ELISA detects its analyte on a solid surface through an enzyme-linked reagent.
Turning to GCQVMRPFWGCKQDSDCLAGCVCHWYQSCG (designed binder) [VEGF_CKP9.L1.7], the ELISA turned out to be 1.5 and the “S/N vs BSA” value worked out at 8.9.

Take GCQVLQPSWGCKQDSDCLAGCVCHWYQSCG (designed binder) [VEGF_CKP9.L1.79]: the ELISA worked out at 1.2 and the “S/N vs BSA” value came out at 10.

On to GCQVMQPAWGCKQDSDCLAGCVCHWYQSCG (designed binder) [VEGF_CKP9.L1.8], for which the ELISA was 1.2 and the “S/N vs BSA” value worked out at 12.8.

Turning to GCDIMQPLWGCKQDSDCLAGCVCHWYQSCG (designed binder) [VEGF_CKP9.L1.68], the ELISA is 2 and the “S/N vs BSA” value came out at 23.2.

GCHRLQPLWGCKQDSDCLAGCVCHWYQSCG (designed binder) [VEGF_CKP9.L1.19]: the ELISA was determined as 1.4 and the “S/N vs BSA” value is 11.6.

For GCNPMLPLWGCKQDSDCLAGCVCHWYQSCG (designed binder) [VEGF_CKP9.L1.78], the ELISA amounted to 3 and the “S/N vs BSA” value was found to be 25.1.

Regarding GCNVLLPLWGCKQDSDCLAGCVCHWYQSCG (designed binder) [VEGF_CKP9.L1.64], the ELISA was determined as 2.3 and the “S/N vs BSA” value was 19.9.

As for GCNPMLPFWGCKQDSDCLAGCVCHWYQSCG (designed binder) [VEGF_CKP9.L1.57], the ELISA came to 3.7 and the “S/N vs BSA” value stood at 31.8.

In the case of GCHLFEPLWGCKQDSDCLAGCVCHWYQSCG (designed binder) [VEGF_CKP9.L1.2], the ELISA was 1.6 and the “S/N vs BSA” value was 12.5.

As to GCDLMQPLWGCKQDSDCLAGCVCHWYQSCG (designed binder) [VEGF_CKP9.L1.76], the ELISA was determined as 2.5 and the “S/N vs BSA” value was found to be 17.4.

Another test addresses T2, hVEGF-A (human, UniProt P15692-4 27-191, limits assumed). The experiment in a line: cell-based or functional assay.
With GCDVMQPYWGCGRDMDCLAGCVCHWYNSCG (designed binder, also called L2.9.63.27) [VEGF_CKP9.63.27], the “Cellular IC50” value amounted to 5.28 nM.

Another test deals with T1, hVEGF-A (8-109). The experiment in a line: spot phage ELISA. This is another data set of the same source. On the procedure: as §1
GCDVMQPYWGCGRDMDCLAGCVCHWYNSCG (designed binder, also called L2.9.63.27) [VEGF_CKP9.63.27]: the ELISA worked out at 2.1 and the “S/N vs BSA” value amounted to 26.

For the next test, the target named is T2, hVEGF-A. The experiment in a line: KDR-VEGF competition ELISA.
With GCDVMQPYWGCGRDMDCLAGCVCHWYNSCG (designed binder, also called L2.9.63.27) [VEGF_CKP9.63.27], the half-maximal inhibitory concentration (IC50) (commonly the concentration needed to halve the response being measured) stood at 0.3 nM.

In a further test the target is T1, hVEGF-A (8-109). The experiment in a line: spot phage ELISA. This is another data set of the same source. The protocol:
as §1
GCRDLTINWALFCKQDSDCLAGCVCQMFNSCG (designed binder) [VEGF_CKP7.73]: the ELISA came to 1.2 and the “S/N vs BSA” value stood at 19.2.

GCDDPSFDWSVYCKQDSDCLAGCVCRMYDSCG (designed binder) [VEGF_CKP7.2]: the ELISA is 1.2 and the “S/N vs BSA” value came to 21.5.

In the case of GCKNPLFNWALYCKQDSDCLAGCVCQLFDSCG (designed binder) [VEGF_CKP7.8], the ELISA was 0.5 and the “S/N vs BSA” value stood at 7.5.

GCQDPKLNWAVYCKQDSDCLAGCVCQLFNSCG (designed binder) [VEGF_CKP7.88]: the ELISA was determined as 0.5 and the “S/N vs BSA” value is 7.7.

For the molecule GCKDTTFNWGLFCKQDSDCLAGCVCQLYQSCG (designed binder) [VEGF_CKP7.78], the ELISA turned out to be 0.7 and the “S/N vs BSA” value was determined as 11.8.

Consider GCQDPTVNWAVYCKQDSDCLAGCVCQFYQSCG (designed binder) [VEGF_CKP7.17], for which the ELISA turned out to be 0.8 and the “S/N vs BSA” value was found to be 13.4.

For the molecule GCEDPTVDWAQYCKQDSDCLAGCVCQMYQSCG (designed binder) [VEGF_CKP7.46], the ELISA came to 0.3 and the “S/N vs BSA” value is 4.9.

Consider GCWDPTFNWALYCKQDSDCLAGCVCQMYDSCG (designed binder) [VEGF_CKP7.24], for which the ELISA was determined as 0.8 and the “S/N vs BSA” value came to 13.4.

On to GCQDPSLNWADYCKQDSDCLAGCVCQMHQSCG (designed binder) [VEGF_CKP7.50], for which the ELISA came to 0.8 and the “S/N vs BSA” value was found to be 14.3.

In the case of GCQDPTFNWAEYCKQDSDCLAGCVCQMYQSCG (designed binder) [VEGF_CKP7.35], the ELISA is 0.6 and the “S/N vs BSA” value was 10.6.

For the molecule GCLDPSFNWSLYCKQDSDCLAGCVCQMYDSCG (designed binder) [VEGF_CKP7.57], the ELISA came to 1 and the “S/N vs BSA” value worked out at 17.4.

As to GCQDPTLNWATYCKQDSDCLAGCVCQMYQSCG (designed binder) [VEGF_CKP7.43], the ELISA is 0.5 and the “S/N vs BSA” value turned out to be 6.3.

As to GCQDPTFNWAEYCKQDSDCLAGCVCQLYQSCG (designed binder) [VEGF_CKP7.19], the ELISA is 0.6 and the “S/N vs BSA” value was found to be 11.1.

As to GCLDPTVNWALFCKQDSDCLAGCVCQHYKTCG (designed binder) [VEGF_CKP7.81], the ELISA came to 1.1 and the “S/N vs BSA” value is 18.6.

Take GCLDPSFDWALYCKQDSDCLAGCVCQLYNSCG (designed binder) [LRP6_CKP7.89]: the ELISA was found to be 0.5 and the “S/N vs BSA” value came out at 8.1.

As for GCLDRTLNWALYCKQDSDCLAGCVCQMYNSCG (designed binder) [VEGF_CKP7.54], the ELISA was determined as 0.5 and the “S/N vs BSA” value is 9.3.

In another test the target is T2, hVEGF-A. The experiment in a line: cell-based or functional assay. This is another data set of the same source.
The molecule GCNIMLPYWGCGRDFECMNQCICQYYQSCG (designed binder) [VEGF_CKP9.54.90.13.F8Y] had a Cellular IC50 of 2.02 nM and an FOLD [..] [..] TO VARIANT 9.54.90 of 0.67 fold.

GCNIMLPFWGCGRDFECFINCICQYYQSCG (designed binder) [VEGF_CKP9.54.90.44] yielded a Cellular IC50 of 1.16 nM and an FOLD [..] [..] TO VARIANT 9.54.90 of 1.16 fold.

Regarding GCNIMLPFWGCGRDFECMQTCICQYYQSCG (designed binder) [VEGF_CKP9.54.90.25], the Cellular IC50 worked out at 1.26 nM and the FOLD [..] [..] TO VARIANT 9.54.90 was found to be 1.07 fold.

On to GCNIMLPYWGCGRDFECFYECICQYYQSCG (designed binder) [VEGF_CKP9.54.90.62.F8Y], for which the Cellular IC50 is 1.14 nM and the FOLD [..] [..] TO VARIANT 9.54.90 came to 1.18 fold.

Regarding CNIMLPYWGCGRDFECLAGCVCQYYQSC (designed binder) [9.54.90.F7Y.A2G], the Cellular IC50 worked out at 3.01 nM and the FOLD [..] [..] TO VARIANT 9.54.90 came out at 0.44 fold.

In turn, GCDVMQPYWGCGPDIDCLSNCICHWYNSCG (designed binder) [VEGF_CKP9.63.12.12] yielded a Cellular IC50 of 0.56 nM and an FOLD [..] [..] TO VARIANT 9.54.90 of 2.41 fold.

A further test concerns the target T1, hVEGF-A (8-109). The experiment in a line: spot phage ELISA. This is another data set of the same source. On the procedure:
as §1
With GCQLLEPMWGCKQDSDCLAGCVCHWYNSCG (designed binder) [VEGF_CKP9.9], the ELISA stood at 1.1 and the “S/N vs BSA” value is 19.7.

In the case of GCDRMQPYWGCKQDSDCLAGCVCQWYKSCG (designed binder) [VEGF_CKP9.11], the ELISA was 1.1 and the “S/N vs BSA” value turned out to be 14.1.

In the case of GCHLLLPLWGCKQDSDCLAGCVCRWYHSCG (designed binder) [VEGF_CKP9.76], the ELISA came to 1.3 and the “S/N vs BSA” value amounted to 15.5.

In the case of GCKLLQPMWGCKQDSDCLAGCVCRWYQSCG (designed binder) [VEGF_CKP9.14], the ELISA amounted to 2 and the “S/N vs BSA” value stood at 30.1.

Turning to GCALLQPLWGCKQDSDCLAGCVCRWYNSCG (designed binder) [VEGF_CKP9.69], the ELISA is 1 and the “S/N vs BSA” value was 14.3.

Consider GCRLLEPSWGCKQDSDCLAGCVCQWYQSCG (designed binder) [VEGF_CKP9.72], for which the ELISA came to 0.6 and the “S/N vs BSA” value was 10.

Turning to GCQLLQPLWGCKQDSDCLAGCVCRWYQSCG (designed binder) [VEGF_CKP9.71], the ELISA was found to be 1 and the “S/N vs BSA” value is 16.5.

On to GCNLMHPFWGCKQDSDCLAGCVCHWYQSCG (designed binder) [VEGF_CKP9.51], for which the ELISA stood at 1 and the “S/N vs BSA” value amounted to 11.

Regarding GCKIMQPLWGCKQDSDCLAGCVCLWYDSCG (designed binder) [VEGF_CKP9.47], the ELISA came to 1 and the “S/N vs BSA” value stood at 14.6.
